Assay results published in US20190002571A1, “INHIBITION OF CCL5 LIGAND BINDING TO CCR5 RECEPTOR AND ALTERATION OF CCR5/CCL5 AXIS SIGNALING IN INFLAMMATION, CANCER, AUTOIMMUNE, AND OTHER CONDITIONS” (CytoDyn Inc., priority 2015, published 2019).

Tests used:
[1] = target: T1, human CCR5 (Homo sapiens, UniProt P51681); test: Migration (chemotaxis) assay with CHO-K1-hCCR5 cells, ATPlite readout; format: cell-based; design: Production of the full length protein was confirmed by western blot; expressed in transfected cells; host or cells: CHO-K1; settings: for chemotactic response / direct induction of migration, agent alone: single agent over its concentration range (MVC 0.0045-10 μM; CCL5 0.0007-0.50 μM), FIG. 4, FIG. 5; for concentrations at which CCL5 induced migration was inhibited: constant dose of CCL5 0.005 μM
T1 sequence (P51681 whole entry): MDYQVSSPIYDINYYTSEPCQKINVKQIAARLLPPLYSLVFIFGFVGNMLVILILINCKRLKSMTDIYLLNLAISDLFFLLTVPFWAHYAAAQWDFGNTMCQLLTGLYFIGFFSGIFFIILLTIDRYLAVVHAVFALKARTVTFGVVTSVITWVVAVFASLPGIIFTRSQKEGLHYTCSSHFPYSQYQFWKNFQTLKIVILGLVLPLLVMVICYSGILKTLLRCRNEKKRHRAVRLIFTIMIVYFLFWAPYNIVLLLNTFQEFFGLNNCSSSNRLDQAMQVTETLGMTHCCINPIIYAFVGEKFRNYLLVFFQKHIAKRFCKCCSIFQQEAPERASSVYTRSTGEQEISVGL
Text: This experiment was designed to investigate the role of PRO 140 on chemotaxis induced by CCL5 engagement of the CCR5 receptor on CHO-CCR5 target cells (CHO-K1 cell line).
a. Cell Lines: The CHO-K1 cell line was transfected with a human CCR5 expression plasmid and selected for expression. Production of the full length protein was confirmed by western blot. Fluorescence-activated cell sorting (FACS) analysis was used to sort for cells that expressed CCR5 on the surface and these cells were purified and expanded.
b. Methods: Migration assays were done in Multiscreen MC plates using CHO-K1-hCCR5 cells in the upper chamber and with media and test agents in the bottom chamber. The agents tested included: PRO 140, Maraviroc (MVC), CCL5, forskolin (FSK), and an IgG4 control as single agents, and PRO 140+CCL5, and Maraviroc+CCL5 as combined agents. The effects on the Chemotaxis Index were measured over a wide concentration range of the test substance. The Chemotaxis Index was calculated as the migration of cells into the lower chamber with a test substance divided by the migration of cells into the lower chamber without the test substance or with a control substance. Migration was measured using the ATPlite assay. All assays were performed in triplicate. Data analysis was determined by the Chemotaxis Index over a wide concentration range of the test substance. Dose ranges of test agents were as follows: PRO 140 was 0.0045-10 ug/ml; MVC was 0.0045-10 μM; CCL5 was 0.0007-0.50 μM; FSK was 0.0045-10 μM; IgG4 control was 0.0045-10 μg/ml.

[2] = target: T1, human CCR5; test: cAMP accumulation in primary CD4+ CCR5+ T cells (radioimmunoassay); format: cell-based; design: Primary CD4+ cell lines were prepared from healthy human donors and grown for 7-10 days prior to sorting for CD4+ CCR5+ T cells; endogenous in cells; host or cells: primary human CD4+ CCR5+ T cells (PHA/IL-2 expanded PBMC, FACS sorted); settings: for cAMP accumulation (stimulated): single agent with rolipram 20 uM and forskolin 10 uM; for cAMP accumulation (stimulated) / cAMP accumulation (unstimulated, basal): PRO 140 1 ug/ml, CCL5 0.1 uM; for cAMP accumulation (unstimulated, basal): single agent with rolipram 20 uM, 37° C., 10 minutes; for effect on cAMP levels as single agent: single agents, CD4+ CCR5+ T cells
Procedure: The first set of experiments was designed to see if PRO 140 has antagonist and/or agonist activity for alternative signaling pathways known to be activated downstream of CCR5 engagement, such as G-protein mediated modulation of intracellular cyclic AMP (cAMP) or specific tyrosine kinase activation.
a. Cell Lines: Primary CD4+ cell lines were prepared from healthy human donors and grown for 7-10 days prior to sorting for CD4+ CCR5+ T cells. PBMC were stimulated with 1 ug/ml of PHA-L Sigma (2E6/well in 24 well plates). PHA lines were expanded using 30 U/ml IL-2 for 24 hours after stimulation and every other day until FACS sorting for CD4+ CCR5+ T cells (on days 7-10). FACS sorting was done using anti-human CD4-percp-Cy5.5 clone RPA-T4, Mouse IgG1k, at 25 ug/ml, with a working concentration of 0.125 ug/ml. Anti-human CCR5-PE clone NP-6G4, Mouse IgG1k, concentration 25 ug/ml, working concentration 1.25 ug/ml was used.
b. Methods: Cell lines were assayed for cAMP levels in the absence or presence of rolipram (20 uM, a cyclic nucleotide phosphodiesterase-4 (PDF-4) inhibitor) with either no addition (basal cAMP) or in response to forskolin (FSK) (10 uM, a non-specific activator of cAMP synthesis), PRO 140 (1 ug/ml), forskolin+PRO 140, CCL5 (0.1 uM), CCL5+ forskolin, or PRO 140+ CCL5+ forskolin. Incubations (0.5E6 cells/ml) were conducted at 37° C. for 10 minutes and then terminated by addition of ice-cold 7.5% trichloroacetic acid (TCA). cAMP was quantified by radioimmunoassay. Statistical significance was determined by unpaired, one-tailed t test analysis using GraphPad prism software, version 4.0

chemotactic response / direct induction of migration, agent alone [1] | cAMP accumulation (stimulated) ([2]; FIG. 2) [fmoles cAMP/0.5E6 cells] | cAMP accumulation (unstimulated, basal) ([2]; no forskolin, FIG. 1) [fmoles cAMP/0.5E6 cells] | effect on cAMP levels as single agent [2] | Chemotaxis Index (chemotactic response), agent alone ([1]; FIG. 4, PRO 140 alone, concentration range 0.0045-10 μg/ml) | Chemotaxis Index, agent alone ([1]; FIG. 6, PRO 140 alone, concentration range 0.0045-4.0 μg/ml) | concentrations at which CCL5 induced migration was inhibited ([1]; FIG. 6) | cAMP accumulation (stimulated) in the presence of CCL5 ([2]; rolipram + PRO 140 1 ug/ml + CCL5 0.1 uM + forskolin 10 uM, FIG. 2) [fmoles cAMP/0.5E6 cells] | cAMP accumulation (unstimulated, basal) in the presence of CCL5 ([2]; rolipram + PRO 140 1 ug/ml + CCL5 0.1 uM, no forskolin, FIG. 1) [fmoles cAMP/0.5E6 cells] | Molecule | concentration range in which the chemotactic response was significant ([1]; MVC alone, FIG. 4) | concentrations at which CCL5 induced migration was inhibited ([1]; FIG. 5) | chemotactic response / direct induction of migration, agent alone ([1]; listed as MVC) | effect on CCL5 triggered decrease in cAMP levels ([2]; PRO 140 combined with CCL5)
pronounced | 3800 | 60 | decreased cAMP levels | – | – | – | – | – | CCL5: C-C chemokine ligand 5, inflammatory chemokine also known as RANTES; natural CCR5 ligand [reference compound] | – | – | – | –
– | – | – | – | – | – | – | – | – | Maraviroc | above 0.01 μM | above 0.05 μM | significant direct induction of migration | –
– | 6300 | 110 | no effect on cAMP levels | 0 | less than 3 | above 0.4 μg/ml | 5700 | 107 | PRO 140: a known humanized monoclonal antibody CCR5 antagonist with anti-HIV properties (antibody, chains of the INN, looked up, V domains shown) VH: EVQLVESGGGLVKPGGSLRLSCAASGYTFSNYWIGWVRQAPGKGLEWIGDIYPGGNYIRNNEKFKDKTTLSADTSKNTAYLQMNSLKTEDTAVYYCGSSFGSNYVFAWFTYWGQGTLVTVSS VL: DIVMTQSPLSLPVTPGEPASISCRSSQRLLSSYGHTYLHWYLQKPGQSPQLLIYEVSNRFSGVPDRFSGSGSGTDFTLKISRVEAEDVGVYYCSQSTHVPLTFGQGTKVEIK | – | – | – | diminished the effects of CCL5 on decreasing cAMP
